Measured values taken from paper PMC2120828 (The Journal of Cell Biology, 1996).

Experiments:
Experiment in all cases: two-hybrid
[1] = biological target: DBDlexA-Cdc42(D118A/C188S) (S. cerevisiae, UniProt P19073 1-191, D118A | C188S)
[2] = biological target: DBDlexA-Cdc42(Q61L/C188S) (S. cerevisiae, UniProt P19073 1-191, Q61L | C188S)
DBDlexA-Cdc42(C188S) = DBDlexA-Cdc42(C188S) (S. cerevisiae, UniProt P19073 1-191, C188S)
Chain of DBDlexA-Cdc42(C188S) (P19073 whole entry C188S): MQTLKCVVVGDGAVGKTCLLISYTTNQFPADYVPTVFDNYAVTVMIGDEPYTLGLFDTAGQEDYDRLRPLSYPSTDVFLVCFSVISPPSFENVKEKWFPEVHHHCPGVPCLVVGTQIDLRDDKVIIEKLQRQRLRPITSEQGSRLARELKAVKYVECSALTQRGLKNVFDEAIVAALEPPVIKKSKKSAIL

Chain of DBDlexA-Cdc42(D118A/C188S) (P19073 whole entry D118A/C188S): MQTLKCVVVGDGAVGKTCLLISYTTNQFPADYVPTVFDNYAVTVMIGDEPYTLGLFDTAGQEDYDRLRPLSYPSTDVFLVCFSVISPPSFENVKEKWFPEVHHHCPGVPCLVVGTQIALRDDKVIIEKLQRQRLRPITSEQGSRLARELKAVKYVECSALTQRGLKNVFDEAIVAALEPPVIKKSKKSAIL
Chain of DBDlexA-Cdc42(Q61L/C188S) (P19073 whole entry Q61L/C188S): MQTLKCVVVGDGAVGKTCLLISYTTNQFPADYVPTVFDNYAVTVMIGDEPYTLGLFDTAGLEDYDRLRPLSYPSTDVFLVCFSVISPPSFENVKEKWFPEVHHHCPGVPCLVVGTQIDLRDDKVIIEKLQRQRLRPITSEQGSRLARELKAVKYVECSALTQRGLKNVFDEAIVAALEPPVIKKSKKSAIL

B1: ADGal4-BOI1(375-557) (domain or fragment, S. cerevisiae)
chain: ILDMTEVPNLFADKDIFESPGRAPKPPSYPSPVQPPQSPSFNNRYTNNNARFPPQTTYPPKNKNPTVYSNGLIPNSSTSSDNSTGKFKFPAMNGHDSNSRKTTLTSATIPSINTVNTDESLPAISNISSNATSHHPNRNSVVYNNHKRTESGSSFVDLFNRISMLSPVKSSFDEEETKQPSKA
beta-galactosidase activity [1]: < 0.02

B2: ADGal4-BOI1(375-980) (domain or fragment, S. cerevisiae)
chain: ILDMTEVPNLFADKDIFESPGRAPKPPSYPSPVQPPQSPSFNNRYTNNNARFPPQTTYPPKNKNPTVYSNGLIPNSSTSSDNSTGKFKFPAMNGHDSNSRKTTLTSATIPSINTVNTDESLPAISNISSNATSHHPNRNSVVYNNHKRTESGSSFVDLFNRISMLSPVKSSFDEEETKQPSKASRAVFDSARRKSSYGHSRDASLSEMKKHRRNSSILSFFSSKSQSNPTSPTKQTFTIDPAKMTSHSRSQSNSYSHARSQSYSHSRKHSLVTSPLKTSLSPINSKSNIALAHSETPTSSNNKEAVSQPSEGKHKHKHKHKSKHKHKNSSSKDGSSEEKSKKKLFSSTKESFVGSKEFKRSPSELTQKSTKSILPRSNAKKQQTSAFTEGIRSITAKESMQTADCSGWMSKKGTGAMGTWKQRFFTLHGTRLSYFTNTNDEKERGLIDITAHRVLPASDDDRLISLYAASLGKGKYCFKLVPPQPGSKKGLTFTEPRVHYFAVENKSEMKAWLSAIIKATIDIDTSVPVISSYATPTIPLSKAQTLLEEARLQTQLRDAEEEEGRDQFGWDDTQNKRNSNYPIEQDQFETSDYLESSAFEYPGGRL
beta-galactosidase activity [2]: 400 | beta-galactosidase activity [1]: < 0.02

B3: ADGal4-BOI1(731-980) (domain or fragment, S. cerevisiae)
chain: EFKRSPSELTQKSTKSILPRSNAKKQQTSAFTEGIRSITAKESMQTADCSGWMSKKGTGAMGTWKQRFFTLHGTRLSYFTNTNDEKERGLIDITAHRVLPASDDDRLISLYAASLGKGKYCFKLVPPQPGSKKGLTFTEPRVHYFAVENKSEMKAWLSAIIKATIDIDTSVPVISSYATPTIPLSKAQTLLEEARLQTQLRDAEEEEGRDQFGWDDTQNKRNSNYPIEQDQFETSDYLESSAFEYPGGRL
beta-galactosidase activity (DBDlexA-Cdc42(C188S)): 380 | beta-galactosidase activity [2]: 230 | beta-galactosidase activity [1]: < 0.02
